Test [1] deals with T1, cynomolgus CD39 (full length, on CHOK1-cynoCD39 cells) (cynomolgus monkey, UniProt A0A7N9DGH8 1-510).
T1 construct: whole, on cells; also called cCD39
T1 sequence: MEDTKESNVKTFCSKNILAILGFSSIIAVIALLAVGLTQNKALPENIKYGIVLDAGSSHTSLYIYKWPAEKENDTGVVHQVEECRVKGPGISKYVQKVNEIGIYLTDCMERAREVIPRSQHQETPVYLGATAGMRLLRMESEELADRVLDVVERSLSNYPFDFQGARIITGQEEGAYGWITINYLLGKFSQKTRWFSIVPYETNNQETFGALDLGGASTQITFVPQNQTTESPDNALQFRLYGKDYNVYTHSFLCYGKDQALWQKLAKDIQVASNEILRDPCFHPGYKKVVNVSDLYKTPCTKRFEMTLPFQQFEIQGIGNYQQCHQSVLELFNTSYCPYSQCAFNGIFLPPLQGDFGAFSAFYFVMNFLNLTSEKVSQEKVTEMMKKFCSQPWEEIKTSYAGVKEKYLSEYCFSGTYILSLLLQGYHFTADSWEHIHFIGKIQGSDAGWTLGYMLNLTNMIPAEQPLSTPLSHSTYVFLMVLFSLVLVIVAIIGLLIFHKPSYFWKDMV
Briefly: FACS, CHOK1-cynoCD39 cells. Summed up:
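Cells incubated 60 min at 4 °C with anti-CD39 antibodies in 4-fold serial dilution from 30 μg/ml in PBS/1% FBS/0.05% Tween-20; CHOK1-blank cells as negative control. Binding read by flow cytometry as mean fluorescence intensity; apparent affinity fitted from full binding curves.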
(A flow cytometer gives signals particle by particle.)

Test [2] has as its target T2, human CD39 (full length, on cells) (human, UniProt P49961 1-510).
T2 construct: Recombinant on CHOK1-hCD39 cells or natural on SK-MEL-28, SK-MEL-5 and MOLP-8 cells; the cell line is named under assay; also called hCD39; ENTPD1
T2 sequence: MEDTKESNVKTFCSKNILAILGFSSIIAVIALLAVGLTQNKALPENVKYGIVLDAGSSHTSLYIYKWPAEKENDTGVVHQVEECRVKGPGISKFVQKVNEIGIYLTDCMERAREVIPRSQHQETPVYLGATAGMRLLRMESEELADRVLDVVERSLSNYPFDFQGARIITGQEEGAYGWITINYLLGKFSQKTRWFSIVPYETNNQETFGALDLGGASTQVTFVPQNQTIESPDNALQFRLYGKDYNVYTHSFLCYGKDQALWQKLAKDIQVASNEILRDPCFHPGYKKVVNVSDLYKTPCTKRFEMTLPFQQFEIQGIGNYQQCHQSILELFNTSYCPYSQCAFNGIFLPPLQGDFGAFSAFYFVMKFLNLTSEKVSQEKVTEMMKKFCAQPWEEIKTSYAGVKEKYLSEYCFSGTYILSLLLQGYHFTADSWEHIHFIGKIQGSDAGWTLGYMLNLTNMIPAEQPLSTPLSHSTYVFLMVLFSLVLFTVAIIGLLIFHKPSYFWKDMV
In words: FACS competition on CHOK1-hCD39; competitor mAb21-Alexa488. Here is the method:
(§1) Anti-CD39 antibodies were labeled using Alex488 labeling kit and were diluted in a series of concentrations, before mixing with CHOK1-hCD39 cells to test binding EC₅₀using FACS. The non-labeled antibodies were tested for their blocking efficacy to the labelled ones. Briefly, mononuclear CHOK1-hCD39 cells were prepared to 2×10⁶/ml and plated into 96 well at 50 μl/well, then mixed with antibodies gradients to final volume at 100 μl, and then equal volume of Alex488 label antibodies were added at two folds EC80 concentration. 96 well plates were incubated at 4° C. for 1 hour, and spun down and washed 3 times with 200 μl FACS buffer. The FACS analysis was performed on FACScelesta machine and data was analyzed by Flowjo software. The blocking percentages were calculated and those having above 80% competition rate were allocated into one epitope group, compared with the non-competing well (Alex488 labeled antibody only).
(§2) Based on the competition results, the 4 anti-CD39 hybridoma antibodies (mAb14, mAb19, mAb21, mAb23) can be grouped into 4 different epitope groups, as shown in Table 11.

The target of test [3] is T2, human CD39 (full length, on cells). In words: FACS competition on CHOK1-hCD39; competitor 9-8B-Alexa488. Here is the method:
as §1, §2

The target is the same in test [4]. In words: FACS competition on CHOK1-hCD39; competitor mAb19-Alexa488. As for the experimental part: as §1, §2
For test [5] the target is unchanged. Briefly: FACS competition on CHOK1-hCD39; competitor mAb23-Alexa488. Here is the method:
as §1, §2

For test [6] the target is unchanged. Briefly: FACS competition on CHOK1-hCD39; competitor mAb14-Alexa488. Here is the method:
as §1, §2

Test [7] shares this target. In words: cell-based or functional assay.

B1: Antibody 9-8B (antibody, V domains shown)
VH: QIQLVQSGPELKKPGETVKISCKASGYTFTHYGMNWVKQAPGKGLKWMGWINTYTGELTYADDFKGRFAFSLETSASTAYLQINNLKNEDTATYFCARRAYYRYDYVMDYWGQGTSVTVSS
VL: DIVMTQSQKFMSTSVGDRVSVTCKASHNVGTNVAWYQQKPGQSPKALIYSASYRYSGVPGRFTGSGSGTDFTLTISNVQSEDLAEYFCHQYNNYPYTFGGGTKLEIK
The EC50 is the concentration giving half of the maximal effect. A lower EC50 goes with an effect from little substance. Turning to B1, the EC50 in test [1] was 1.6 nM. Further, the blocking percentage was 16% in test [2]; 98% in test [3]; 19% in test [4]; 100% in test [5]; 55% in test [6].

B2: mAb14 (antibody, V domains shown)
VH: EVKLEESGGGLVQPGGSMKLSCVASGFTFSKYWMNWVRQSPEKGLEWVAEIRLKSNKYGTHYAESVKGRFTISRDDSKNNVYLQMNNLRPEDTGIYYCTTQLDLYWFFDVWGAGTTVTVSS
VL: DIVMTQSPAILSVTPGDRVSLSCRASQSISDYLHWYQQKSHESPRLLIKYASQSISGIPSRFSGSGSGSNFTLSINSVEPEDVGVYFCQNGHSLPLTFGAGTKLELR
notes: mouse hybridoma antibody
Consider B2, for which the EC50 in test [1] amounted to 3.4 nM. The blocking percentage in test [2] is 10%; in test [3], -11%; in test [4] it was 6%; in test [5], -26%; in test [6], 98%.

B3: Antibody T895 (antibody, V domains shown)
VH: EVQLQQSGPELVKPGASVKMSCKASGYTFTDYNMHWVKQSHGRTLEWIGYIVPLNGGSTFNQKFKGRATLTVNTSSRTAYMELRSLTSEDSAAYYCARGGTRFAYWGQGTLVTVSA
VL: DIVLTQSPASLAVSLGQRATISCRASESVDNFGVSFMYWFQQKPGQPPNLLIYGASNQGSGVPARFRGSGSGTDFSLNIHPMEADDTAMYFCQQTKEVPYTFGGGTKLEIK
notes: also called 31895
For B3, in test [7], the “ATPase activity inhibition IC50 on MOLP-8 cells” value turned out to be 0.51 nM and the “ATPase activity inhibition IC50 on SK-MEL-5 cells” value is 0.09 nM.

B4: hu23.H5L5 (antibody, V domains shown)
VH: QVQLVQSGAEVKKPGASVKVSCKASGYNLKDTFLHWVRQAPGQGLEWMGRIDPANGNIKYDPKFQGRVTITADTSANTAYMELISLRSEDTAVYYCANSPYYYGSGYRIFDVWGQGTTVTVSS
VL: QIVLTQSPATLSLSPGERATLSCSAFSSVNYMHWYQQKPGQAPRLLIYTTSNLASGIPTRFSGSGSGTSYTLTISSLEPEDFAVYYCQQRSTYPFTFGQGTKLEIK
notes: humanized c23
In the case of B4, in test [7], the “ATPase activity inhibition IC50 on MOLP-8 cells” value is 0.33 nM and the “ATPase activity inhibition IC50 on SK-MEL-5 cells” value is 0.07 nM.
